This is an account of results in patent US20240239878A1 (SHANGHAI QILU PHARMACEUTICAL RESEARCH AND DEVELOPMENT CENTRE, published 2024).

As usually defined, the Kd is the equilibrium constant for the complex coming apart. For orientation: koff means the first-order rate constant of dissociation. By kon is commonly meant a measure of how fast the partners come together.

Assay [1] deals with T1, human DLL3 antigen protein (Kactus Biosystems, Cat. No. DLL-HM103) (human, UniProt Q9NYJ7 27-492).
T1 sequence: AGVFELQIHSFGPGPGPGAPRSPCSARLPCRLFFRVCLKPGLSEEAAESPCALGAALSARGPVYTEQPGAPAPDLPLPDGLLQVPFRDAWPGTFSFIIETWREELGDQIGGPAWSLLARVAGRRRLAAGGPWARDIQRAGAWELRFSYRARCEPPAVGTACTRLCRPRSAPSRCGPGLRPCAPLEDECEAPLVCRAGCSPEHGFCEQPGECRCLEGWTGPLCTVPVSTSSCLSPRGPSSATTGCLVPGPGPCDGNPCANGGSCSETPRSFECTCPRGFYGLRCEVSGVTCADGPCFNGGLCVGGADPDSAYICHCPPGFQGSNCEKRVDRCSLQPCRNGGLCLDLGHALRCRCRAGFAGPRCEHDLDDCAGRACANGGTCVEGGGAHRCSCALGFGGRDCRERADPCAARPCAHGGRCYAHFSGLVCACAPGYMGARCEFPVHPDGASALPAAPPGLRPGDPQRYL
Put plainly: ELISA, antigen coated at 2 ug/ml, induced supernatant, anti-Myc HRP. Here is the method: (§1) In order to obtain a positive antibody that can cross-bind to human DLL3 and Cynomolgus monkey DLL3, the above library was amplified and added to the M13K07 helper phage to assemble phage. 1×10¹² pfu camel immune library phage was added and incubated with biotinylated human DLL3 proteins (8 μg/mL) bound to magnetic beads for 1 h at room temperature. After washing with 0.05% PBST to remove unbound phage, the phage specifically bound to DLL3 was eluted with 100 mM triethylamine. After gradient dilution, log-phase growth of E. coli SS320 was infected and spread on an ampicillin plate overnight at 37° C. A single clone was picked for IPTG-induced expression and the supernatant was used for ELISA detection. The ELISA plate was coated with 2 μg/ml human DLL3 or Cynomolgus monkey DLL3 antigen respectively overnight at 4° C. The plate was washed with 0.05% PBST 3 times, then blocked with 5% skimmed milk for 1 h at room temperature, and washed with 0.05% PBST 3 times. Then 30 μL of induced supernatant was added to each well, and a culture medium was added to a negative control well. The plate was incubated for 1 h at room temperature. Finally, anti-Myc HRP detection was performed (VHH expressed by IPTG induction has his and c-Myc labels). The amino acid sequences of the five heavy chain antibody variable regions of the present disclosure were obtained by sequencing clones from the ELISA assay that bound human and Cynomolgus monkey DLL3 with OD450 values greater than 1.0 and ELISA OD450 ratios greater than 3 to the medium as negative control, with the results shown in Table 1: […]

Assay [2] addresses T2, Cynomolgus monkey DLL3 antigen protein (Kactus Biosystems, Cat. No. CM103) (Cynomolgus monkey, UniProt Q9NYJ7 27-490 (human entry)).
T2 construct: also called cyno DLL3
T2 chain: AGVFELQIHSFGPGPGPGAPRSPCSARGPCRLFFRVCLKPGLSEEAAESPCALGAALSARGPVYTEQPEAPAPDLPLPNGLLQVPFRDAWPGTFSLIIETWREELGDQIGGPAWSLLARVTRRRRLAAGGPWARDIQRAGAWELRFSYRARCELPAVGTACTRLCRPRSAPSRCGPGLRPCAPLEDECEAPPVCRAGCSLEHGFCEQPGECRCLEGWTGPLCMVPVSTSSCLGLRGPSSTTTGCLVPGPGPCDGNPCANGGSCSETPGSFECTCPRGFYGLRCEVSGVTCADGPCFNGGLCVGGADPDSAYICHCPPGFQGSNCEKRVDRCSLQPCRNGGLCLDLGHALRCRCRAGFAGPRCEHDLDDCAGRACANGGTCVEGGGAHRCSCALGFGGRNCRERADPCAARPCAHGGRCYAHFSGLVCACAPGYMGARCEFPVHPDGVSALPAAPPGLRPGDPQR
The description is as above. Here is the method: as §1

Assay [3] deals with T1, human DLL3 antigen protein (Kactus …). Put plainly: affinity assay with human DLL3 antigen protein (kinetics; method not restated, Biacore as in Example 18 implied). Background: SPR reads the build-up and loss of mass on a sensor chip optically.
Assay [4] addresses T2, Cynomolgus monkey DLL3 antigen protein …. Briefly: affinity assay with Cynomolgus monkey DLL3 antigen protein (kinetics; method not restated, Biacore as in Example 18 implied).

Substitutions are numbered along the chain they refer to.

B1: DLL3-26 VHH (IPTG-induced supernatant, with his and c-Myc labels) (VHH)
VHH: QVQLVESGGGSVQAGGSLRLSCAASGDIYSSSYVGWFRQAPGKEREGVAIIYTSGDSTYYANSVKGRFTISQDKAKKTLYLQMNSLKPEDTAMYYCAARFAIDNSNYWGQGTQVTVSS
notes: not shown: his and c-Myc labels
Consider B1, for which, in assay [1], the “ELISA OD450 ratio to the medium negative control” value (“ELISA OD450 ratio” below) was greater than 3 fold and the OD450 was greater than 1 OD450. In assay [2], the “ELISA OD450 ratio” value was greater than 3 fold and the OD450 is greater than 1 OD450.

B2: H2-39E2D11-AS humanized antibody variant (antibody, V domains shown)
VH: QVQLVQSGAEVKKPGASVKVSCKASGYTFISYWITWVRQAPGQGLEWMGDIYPGSGSTTNYNEKFKSRVTMTRDTSTSTVYMELSSLRSEDTAVYYCARETTVGGAYAMDYWGQGTLVTVSS
VL: EIVLTQSPATLSLSPGERATLSCRASQSINNNLHWYQQKPGQAPRLLIKYVSQSISGIPARFSGSGSGTDFTLTISSLEPEDFAVYYCQQTASWPLTFGGGTKLEIK
notes: Variant of H2-39E2D11; Its constant regions are not restated
In assay [3], B2 registered a Kd of 1760 pM, a koff of 0.000362 s⁻¹ and a kon of 206000 M⁻¹ s⁻¹. For the same molecule, in assay [4], the Kd worked out at 1630 pM, the koff was 0.000427 s⁻¹ and the kon came to 262000 M⁻¹ s⁻¹.

B3: H2-39E2D11-QS humanized antibody variant (antibody, V domains shown)
VH: B2 VH
VL: B2 VL with A92Q
notes: as for B2
In assay [3], B3 displayed a Kd of 229 pM, a koff of 3.91e-05 s⁻¹ and a kon of 171000 M⁻¹ s⁻¹. In assay [4], this molecule returned a Kd of 434 pM, a dissociation rate constant (koff) of 8.59e-05 s⁻¹ and a kon of 198000 M⁻¹ s⁻¹.

B4: H2-39E2D11-NA humanized antibody variant (antibody, V domains shown)
VH: B2 VH
VL: B2 VL with A92N, S93A
notes: as for B2
In assay [3], B4 displayed a Kd of 484 pM, a koff of 0.00012 s⁻¹ and a kon of 247000 M⁻¹ s⁻¹. In assay [4], this molecule yielded a Kd of 346 pM, a koff of 8.09e-05 s⁻¹ and a kon of 233000 M⁻¹ s⁻¹.

B5: DLL3-122 VHH (IPTG-induced supernatant, with his and c-Myc labels) (VHH)
VHH: QVQLVESGGGSVQAGGSLRLSCTASGDTYRSYCMGWFRKAPGKEREGVADIVSDGSTSYADSVKGRFTISKDNAKNTLYLQMNSLKPEDTAMYYCAVDRGGSGGYCYTGRYDYWGQGTQVTVSS
notes: as for B1
B5: in assay [1], the “ELISA OD450 ratio” value was greater than 3 fold and the OD450 was greater than 1 OD450. Besides, in assay [2], the “ELISA OD450 ratio” value is greater than 3 fold and the OD450 is greater than 1 OD450.

B6: DLL3-12 VHH (IPTG-induced supernatant, with his and c-Myc labels) (VHH)
VHH: QVQLVESGGGLVQPGESLRLSCAGSGFAFSSYDMHWVRQAPGKDFEWVSSISRDGRGPRYADFVKGRFTISKDNGRNMLYLQLNSLEIEDTAMYYCSKGYPIMGGTTQGTQVTVSS
notes: as for B1
Regarding B6, in assay [1], the “ELISA OD450 ratio” value was greater than 3 fold and the OD450 was greater than 1 OD450. Besides, in assay [2], the “ELISA OD450 ratio” value is greater than 3 fold and the OD450 was greater than 1 OD450.

B7: DLL3-3 VHH (IPTG-induced supernatant, with his and c-Myc labels) (VHH)
VHH: DVQLVESGGGSVQAGGSLKLSCKSPTYTISSGYMGWFRQAPGKEREGVAAIYIGGSTTLYADSVKGRFTISADNAEKTVYLQMNTLKPEDSAMYYCAAQLRPNSAYHPLDGRKYNYWGQGTQVTVSS
notes: as for B1
In the case of B7, in assay [1], the “ELISA OD450 ratio” value is greater than 3 fold and the OD450 is greater than 1 OD450. In addition, in assay [2], the “ELISA OD450 ratio” value is greater than 3 fold and the OD450 was greater than 1 OD450.

B8: DLL3-276 VHH (IPTG-induced supernatant, with his and c-Myc labels) (VHH)
VHH: QVQLVESGGGSVQAGGSLNLSCATSGSTASTTYMGWFRQAPGKGREGVAIIYTARDNPWYANSVKGRFIISQDNAKKTLYLQMNTLKPEDTATYYCAATLANPTRTAWGQGTLVTVSS
notes: as for B1
Take B8: in assay [1], the “ELISA OD450 ratio” value is greater than 3 fold and the OD450 was greater than 1 OD450. In assay [2], the “ELISA OD450 ratio” value was greater than 3 fold and the OD450 was greater than 1 OD450.
